The values that follow are results of earlier work, collected in patent EP4471063A1, “ANTIBODY AGAINST HER3, CONJUGATE AND USE THEREOF” (priority 2022, dated 2023).

The conditions of series [1]: multicenter clinical studies.
[2] abbreviates: once every three weeks, five administrations, 0, 3, 10, 30 mg/kg.

On to Patritumab Deruxtecan, for which the “thrombocytopenia as treatment emergent adverse event (TEAE)” value in series [1] is 30%. Also, the body weight result (at all doses) is “no significant abnormality”. In addition, the toxic target organs result (cynomolgus monkey, in vivo) is “thymus, bone marrow, and skin”. Under setting [2], the “dose at which a decrease in reticulocytes, lymphocytes, and platelets was observed” value is given as not below 3 mg/kg; the “dose at which transferases increased” value was not below 10 mg/kg.
